“And” between values parts separate entries of the source, which are not always exact repeats. Equal values may be shown once. Read-outs that look alike come from different tables or passages of the source.

The target in assay [1] is C3-C3b receptor (human (endogenous in Raji, Daudi and HPL)). Description: immunostaining of cells or tissue.
The target is the same in assay [2]. Description: immunostaining of cells or tissue. The source holds these as a separate data set.
Assay [3] shares this target. Description: rosette formation.
Assay [4] has as its target human C3b (human) (UniProt P01024). Put plainly: immunostaining of cells or tissue.
Sequence of UniProt P01024 (P01024 23-667, chain 1 of 2): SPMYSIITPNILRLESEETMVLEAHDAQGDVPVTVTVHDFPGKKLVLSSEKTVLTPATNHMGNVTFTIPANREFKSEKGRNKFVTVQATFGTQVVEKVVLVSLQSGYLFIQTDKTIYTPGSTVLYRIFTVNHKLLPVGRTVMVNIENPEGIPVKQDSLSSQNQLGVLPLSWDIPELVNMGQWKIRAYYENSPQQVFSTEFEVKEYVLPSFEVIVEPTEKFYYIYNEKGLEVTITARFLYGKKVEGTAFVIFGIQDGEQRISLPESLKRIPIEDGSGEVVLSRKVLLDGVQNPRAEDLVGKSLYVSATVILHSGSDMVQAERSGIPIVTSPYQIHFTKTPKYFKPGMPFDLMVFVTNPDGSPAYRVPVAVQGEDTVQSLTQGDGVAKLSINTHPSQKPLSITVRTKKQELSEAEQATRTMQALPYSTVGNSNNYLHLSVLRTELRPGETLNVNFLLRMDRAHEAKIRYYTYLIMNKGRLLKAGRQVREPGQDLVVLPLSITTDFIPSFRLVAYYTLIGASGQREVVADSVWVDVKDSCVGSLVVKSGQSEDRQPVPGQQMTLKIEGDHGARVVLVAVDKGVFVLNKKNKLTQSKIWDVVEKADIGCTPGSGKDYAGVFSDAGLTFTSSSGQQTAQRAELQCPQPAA
Sequence of UniProt P01024 (P01024 749-1663, chain 2 of 2): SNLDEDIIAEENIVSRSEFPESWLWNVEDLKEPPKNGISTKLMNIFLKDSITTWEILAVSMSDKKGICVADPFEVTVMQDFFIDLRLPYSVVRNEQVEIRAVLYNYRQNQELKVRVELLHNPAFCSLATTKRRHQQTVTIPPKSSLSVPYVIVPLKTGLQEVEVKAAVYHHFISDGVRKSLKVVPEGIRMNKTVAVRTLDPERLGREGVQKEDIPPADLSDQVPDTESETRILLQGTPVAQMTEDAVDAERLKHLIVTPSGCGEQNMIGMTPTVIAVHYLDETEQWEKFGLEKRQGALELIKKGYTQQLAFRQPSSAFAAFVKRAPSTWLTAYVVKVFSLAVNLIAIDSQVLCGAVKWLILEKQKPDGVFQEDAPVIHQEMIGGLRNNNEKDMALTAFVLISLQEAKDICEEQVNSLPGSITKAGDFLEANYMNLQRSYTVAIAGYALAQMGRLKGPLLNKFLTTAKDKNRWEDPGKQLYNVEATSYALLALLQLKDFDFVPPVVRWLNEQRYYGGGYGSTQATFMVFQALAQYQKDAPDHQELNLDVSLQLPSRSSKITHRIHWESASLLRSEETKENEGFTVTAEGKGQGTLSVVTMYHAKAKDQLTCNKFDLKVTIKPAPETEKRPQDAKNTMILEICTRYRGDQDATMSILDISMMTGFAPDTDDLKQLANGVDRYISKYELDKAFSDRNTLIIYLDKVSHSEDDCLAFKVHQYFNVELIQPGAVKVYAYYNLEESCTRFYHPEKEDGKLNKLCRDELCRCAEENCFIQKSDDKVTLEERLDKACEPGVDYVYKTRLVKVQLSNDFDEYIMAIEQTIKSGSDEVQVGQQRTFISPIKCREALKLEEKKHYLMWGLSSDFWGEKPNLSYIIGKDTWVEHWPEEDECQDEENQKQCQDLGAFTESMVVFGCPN
The target is the same in assay [5]. Description: immunostaining of cells or tissue. This is another data set of the same source.
Assay [6] has the same target. Description: immunostaining of cells or tissue. The source holds these as a separate data set.
Assay [7] shares this target. Description: immunostaining of cells or tissue. This is another data set of the same source.
Assay [8] has the same target. Put plainly: immunostaining of cells or tissue. This is another data set of the same source.
Assay [9] has the same target. Description: immunostaining of cells or tissue. This is another data set of the same source.

As for “human C3b (from UniProt P01024 23-667; P01024 749-1663) (domain or fragment)”, in assay [1], the percent cells binding came out at 90%. In assay [2], this substance came in with a percent cells binding of 100% and a percent immunofluorescence positive cells of 98%. For the same substance, the percent rosette-forming cells in assay [3] is 100% and 98%.
In assay [1], “human complement component C3 (from UniProt P01024 23-667; P01024 672-1663) (natural protein)” yielded a percent cells binding of 90% and a percent immunofluorescence positive cells of 100%. In [2], this substance had a percent cells binding of 100% and a percent immunofluorescence positive cells of 100%.
With factor B (natural protein), the percent immunofluorescence positive cells with human C3b (human) [4] was 93%; with human C3b (human) [5], 89%; with human C3b (human) [6], 5%; in the assay with human C3b (human) [7], 95%; with human C3b (human) [8], 5%; with human C3b (human) [9], 2%.
